Columns and labels:
[1] = target: T1, mouse serum albumin (mouse, UniProt P07724 25-608); assay: SPR (Biacore), purified construct
T1 construct: also called MSA; MurineSA

[2] = target: T2, human serum albumin (human, UniProt P02768 25-609); assay: SPR (Biacore), running buffer pH7.0; pH 7
T2 construct: also called HSA; HumanSA
Text: (§1) Covalent immobilisation of the capture antibody was achieved by standard amine coupling chemistry.

[3] = target: T2, human serum albumin; assay: SPR (Biacore), running buffer pH5.0; pH 5
Text: as §1

[4] = target: T2, human serum albumin; assay: SPR (Biacore), purified construct
[5] = target: T2, human serum albumin; assay: SPR (Biacore), construct captured from HEK293 supernatant, HSA injected
[6] = target: T2, human serum albumin; assay: SPR (Biacore), running buffer pH6.0; pH 6
[7] = target: T2, human serum albumin; assay: SPR (Biacore), purified construct; remark: listed apart in the source
[8] = target: T1, mouse serum albumin; assay: SPR (Biacore), purified construct; remark: listed apart in the source
[9] = target: T2, human serum albumin; assay: SPR (Biacore), running buffer pH5.5; pH 5.5
Text: as §1

[10] = target: T2, human serum albumin; assay: SPR (BIAcore)
[11] = target: T2, human serum albumin; assay: affinity as humanised IgG; method not named
[12] = target: T1, mouse serum albumin; assay: affinity as humanised IgG; method not named
[13] = target: T3, rat serum albumin (rat, UniProt P02770 25-608); assay: affinity as humanised IgG; method not named
T3 construct: also called RatSA

[14] = target: T4, IL-1β; assay: SPR (Biacore), construct captured, IL-1β injected
T4 construct: also called IL-1 beta
Experimental: as §1
Kinetic parameters were determined by simultaneous global-fitting of the resulting sensorgrams to a standard 1:1 binding model using Biacore T100 Evaluation software.

[15] = target: T2, human serum albumin; assay: SPR (Biacore), construct captured, HSA injected

B1: FabB-didAb, -dAbL2 (CK-G4Sx2) & dAbH2 (CH1-G4Sx2) (bispecific antibody)
heavy: ASTKGPSVFPLAPSSKSTSGGTAALGCLVKDYFPEPVTVSWNSGALTSGVHTFPAVLQSSGLYSLSSVVTVPSSSLGTQTYICNVNHKPSNTKVDKKVEPKSCGGGGSGGGGSEVQLVESGGGLVQPGGSLRLSCAVSGFSLSRYAMTWVRQAPGKGLEWIGTITTGGNTNYANWAKGRFTISKDSTTVYLQMNSLRAEDTAVYYCARGGYVSYADATELSLWGQGTLVTVSS
light: RTVAAPSVFIFPPSDEQLKSGTASVVCLLNNFYPREAKVQWKVDNALQSGNSQESVTEQDSKDSTYSLSSTLTLSKADYEKHKVYACEVTHQGLSSPVTKSFNRGECGGGGSGGGGSDIVMTQSPSTLSASVGDRVTITCQASQSIGSRLAWYQQKPGKAPKLLIYYASTVASGVPSRFKGSGSGTEFTLTISSLQPDDFATYYCQSYDYSSSSSYAFGGGTKVEIK
notes: also called FabB-648Fv (G4Sx2); FabB-648Fv (2xG4S)
For B1, the Kd [1] was 42.4 nM.

B2: FabB-didAb, -dAbL1 (CK-G4Sx2) & dAbH1 (CH1-G4Sx2) (bispecific antibody)
heavy: ASTKGPSVFPLAPSSKSTSGGTAALGCLVKDYFPEPVTVSWNSGALTSGVHTFPAVLQSSGLYSLSSVVTVPSSSLGTQTYICNVNHKPSNTKVDKKVEPKSCGGGGSGGGGSEVQLLESGGGLVQPGGSLRLSCAVSGIDLSNYAINWVRQAPGKGLEWIGIIWASGTTFYATWAKGRFTISRDSTTVYLQMNSLRAEDTAVYYCARTVPGYSTAPYFDLWGQGTLVTVSS
light: RTVAAPSVFIFPPSDEQLKSGTASVVCLLNNFYPREAKVQWKVDNALQSGNSQESVTEQDSKDSTYSLSSTLTLSKADYEKHKVYACEVTHQGLSSPVTKSFNRGECGGGGSGGGGSDIVMTQSPSSVSASVGDRVTITCQSSPSVWSNFLSWYQQKPGKAPKLLIYEASKLTSGVPSRFKGSGSGTDFTLTISSLQPEDFATYYCGGGYSSISDTTFGGGTKVEIK
notes: also called FabB-645Fv (G4Sx2); FabB-645Fv (2xG4S)
For B2, the Kd [2] was 13.3 nM, the Kd [3] was 7.1 nM and the Kd [4] was 17.5 nM. It also gave a Kd [1] of 24.7 nM, a Kd [5] of 9 nM and a koff [5] of 0.00016 s⁻¹. It also gave a kon [5] of 17800 M⁻¹ s⁻¹, a Kd [6] of 12.5 nM and a Kd [7] of 6.72 nM. It also gave a Kd [8] of 8.01 nM and a Kd [9] of 10.7 nM.

B3: FabB-645dsFv (S3×G4S), Fv heavy mutation Y100cA (bispecific antibody, V domains shown)
VH: EVQLLESGGGLVQPGGSLRLSCAVSGIDLSNYAINWVRQAPGKCLEWIGIIWASGTTFYATWAKGRFTISRDSTTVYLQMNSLRAEDTAVYYCARTVPGYSTAPAFDLWGQGTLVTVSS
VL: DIVMTQSPSSVSASVGDRVTITCQSSPSVWSNFLSWYQQKPGKAPKLLIYEASKLTSGVPSRFKGSGSGTDFTLTISSLQPEDFATYYCGGGYSSISDTTFGCGTKVEIK
B3 was tested, and the Kd [10] was 87 nM, the koff [10] was 0.00107 s⁻¹ and the kon [10] was 12300 M⁻¹ s⁻¹.

B4: Antibody 1 (Antibody 645) as humanised IgG (antibody, V domains shown)
VH: EVQLLESGGGLVQPGGSLRLSCAVSGIDLSNYAINWVRQAPGKGLEWIGIIWASGTTFYATWAKGRFTISRDSTTVYLQMNSLRAEDTAVYYCARTVPGYSTAPYFDLWGQGTLVTVSS
VL: DIVMTQSPSSVSASVGDRVTITCQSSPSVWSNFLSWYQQKPGKAPKLLIYEASKLTSGVPSRFKGSGSGTDFTLTISSLQPEDFATYYCGGGYSSISDTTFGGGTKVEIK
notes: tested as humanised IgG; one grafted VH and one grafted VL were designed for this antibody
Work on B4 yielded a Kd [11] of 0.82 nM, a Kd [12] of 2.9 nM and a Kd [13] of 7.9 nM.

B5: Antibody 2 (Antibody 648) as humanised IgG (antibody, V domains shown)
VH: EVQLVESGGGLVQPGGSLRLSCAVSGFSLSRYAMTWVRQAPGKGLEWIGTITTGGNTNYANWAKGRFTISKDSTTVYLQMNSLRAEDTAVYYCARGGYVSYADATELSLWGQGTLVTVSS
VL: DIVMTQSPSTLSASVGDRVTITCQASQSIGSRLAWYQQKPGKAPKLLIYYASTVASGVPSRFKGSGSGTEFTLTISSLQPDDFATYYCQSYDYSSSSSYAFGGGTKVEIK
notes: as for B4
Binder B5 has a Kd [12] of 23 nM and a Kd [13] of 54 nM.

B6: Fab′A (Fab, V domains shown)
VH: EVQLVESGGGLVQPGGSLRLSCAFSGFSLSTSGVGVGWVRQAPGKGLEWVAHIWWDGDESYNPSLKTQFTISKDTSKNTVYLQMNSLRAEDTAVYYCARNRYDPPWFVDWGQGTLVTVSS
VL: DIQMTQSPSSLSASVGDRVTITCRASQDISNYLSWYQQKPGKAPKLLIYYTSKLHSGVPSRFSGSGSGTDYTLTISSLQPEDFATYYCQQGKMLPWTFGQGTKVEIKR
For B6, the Kd [14] was 0.32 nM, the koff [14] was 6.46e-05 s⁻¹ and the kon [14] was 202000 M⁻¹ s⁻¹.

B7: FabA (Fab, V domains shown)
VH: EVQLVESGGGLVQPGGSLRLSCAFSGFSLSTSGVGVGWVRQAPGKGLEWVAHIWWDGDESYNPSLKTQFTISKDTSKNTVYLQMNSLRAEDTAVYYCARNRYDPPWFVDWGQGTLVTVSS
VL: DIQMTQSPSSLSASVGDRVTITCRASQDISNYLSWYQQKPGKAPKLLIYYTSKLHSGVPSRFSGSGSGTDYTLTISSLQPEDFATYYCQQGKMLPWTFGQGTKVEIKR
B7: no binding [15].

Source: patent publication US20110184152A1 (published 2011)
